US20100196266A1 (published 2010)

Columns and labels:
human CD74 on cells [1] = biological target: T1, human CD74 on cells (human, UniProt P04233 1-296); experiment: indirect FACS, FITC-GAH Fc, Raji cells; none 6.8
T1 construct: whole, on cells
T1 sequence (looked up): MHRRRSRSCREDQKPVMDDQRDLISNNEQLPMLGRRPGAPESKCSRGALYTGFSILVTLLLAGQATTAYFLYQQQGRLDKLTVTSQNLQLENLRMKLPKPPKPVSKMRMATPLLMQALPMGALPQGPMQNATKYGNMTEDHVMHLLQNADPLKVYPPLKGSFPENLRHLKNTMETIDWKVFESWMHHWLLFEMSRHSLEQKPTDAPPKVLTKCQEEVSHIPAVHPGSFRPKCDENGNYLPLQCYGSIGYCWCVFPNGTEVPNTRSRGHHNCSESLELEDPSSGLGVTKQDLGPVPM

human CD74 on cells [2] = biological target: T1, human CD74 on cells; experiment: indirect FACS, FITC-GAH Fc, Daudi cells; none 3.1
human CD74 on cells [3] = biological target: T1, human CD74 on cells; experiment: indirect FACS, FITC-GAH Fc, Ramos cells; none 3.1
human CD74 on cells [4] = biological target: T1, human CD74 on cells; experiment: indirect FACS, FITC-GAH Fc, Namalwa cells; none 2.5
human CD74 on cells [5] = biological target: T1, human CD74 on cells; experiment: indirect FACS, FITC-GAH Fc, SU-DHL-6 cells; none 4.6
human CD74 on cells [6] = biological target: T1, human CD74 on cells; experiment: indirect FACS, FITC-GAH Fc, WSU-FSCCL cells; none 2.6
human CD74 on cells [7] = biological target: T1, human CD74 on cells; experiment: indirect flow cytometry, FITC-GAH Fc, RL cells; none 2.4
human CD74 on cells [8] = biological target: T1, human CD74 on cells; experiment: indirect flow cytometry, FITC-GAH Fc, Raji cells; none 6.9
human CD74 on cells [9] = biological target: T1, human CD74 on cells; experiment: indirect flow cytometry, Namalwa cells, FITC-GAH; none 2.52
human CD74 on cells [10] = biological target: T1, human CD74 on cells; experiment: indirect flow cytometry, FITC-GAH Fc, Daudi cells; none 3.2
human CD74 on cells [11] = biological target: T1, human CD74 on cells; experiment: indirect flow cytometry, FITC-GAH Fc, Ramos cells; none 3.1
human CD74 on cells [12] = biological target: T1, human CD74 on cells; experiment: indirect flow cytometry, FITC-GAH Fc, Namalwa cells; none 2.6
human CD74 on cells [13] = biological target: T1, human CD74 on cells; experiment: indirect flow cytometry, FITC-GAH Fc, SU-DHL-6 cells; none 4.6
human CD74 on cells [14] = biological target: T1, human CD74 on cells; experiment: indirect flow cytometry, FITC-GAH Fc, WSU-FSCCL cells; none 2.7
human CD22 on cells [15] = biological target: T2, human CD22 on cells (human, UniProt P20273 20-847); experiment: indirect FACS, FITC-GAH Fc, Namalwa cells; none 2.5
T2 construct: whole, on cells

human CD22 on cells [16] = biological target: T2, human CD22 on cells; experiment: indirect FACS, FITC-GAH Fc, SU-DHL-6 cells; none 4.6
human CD22 on cells [17] = biological target: T2, human CD22 on cells; experiment: indirect FACS, FITC-GAH Fc, WSU-FSCCL cells; none 2.6
human CD22 on cells [18] = biological target: T2, human CD22 on cells; experiment: indirect flow cytometry, Namalwa cells, FITC-GAH; none 2.52
human CD22 on cells [19] = biological target: T2, human CD22 on cells; experiment: indirect flow cytometry, FITC-GAH Fc, SU-DHL-6 cells; none 4.6
human CD20 on cells [20] = biological target: T3, human CD20 on cells (human, UniProt P11836 1-297); experiment: indirect FACS, FITC-GAH Fc, Raji cells; none 6.8
T3 construct: whole, on cells
T3 sequence (looked up): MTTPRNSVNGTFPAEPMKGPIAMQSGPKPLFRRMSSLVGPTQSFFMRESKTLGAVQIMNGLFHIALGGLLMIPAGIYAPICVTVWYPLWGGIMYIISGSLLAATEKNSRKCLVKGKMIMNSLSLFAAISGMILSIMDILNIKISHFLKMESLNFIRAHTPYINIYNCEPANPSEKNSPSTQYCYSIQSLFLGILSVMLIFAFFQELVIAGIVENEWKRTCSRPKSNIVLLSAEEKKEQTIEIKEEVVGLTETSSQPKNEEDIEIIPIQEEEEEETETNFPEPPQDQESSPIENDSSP

human CD20 on cells [21] = biological target: T3, human CD20 on cells; experiment: indirect FACS, FITC-GAH Fc, Daudi cells; none 3.1
human CD20 on cells [22] = biological target: T3, human CD20 on cells; experiment: indirect FACS, FITC-GAH Fc, Ramos cells; none 3.1
human CD20 on cells [23] = biological target: T3, human CD20 on cells; experiment: indirect FACS, FITC-GAH Fc, Namalwa cells; none 2.5
human CD20 on cells [24] = biological target: T3, human CD20 on cells; experiment: indirect FACS, FITC-GAH Fc, SU-DHL-6 cells; none 4.6
human CD20 on cells [25] = biological target: T3, human CD20 on cells; experiment: indirect FACS, FITC-GAH Fc, WSU-FSCCL cells; none 2.6
human CD20 on cells [26] = biological target: T3, human CD20 on cells; experiment: indirect flow cytometry, FITC-GAH Fc, RL cells; none 2.4
human CD20 on cells [27] = biological target: T3, human CD20 on cells; experiment: indirect flow cytometry, FITC-GAH Fc, Raji cells; none 6.9
human CD20 on cells [28] = biological target: T3, human CD20 on cells; experiment: indirect flow cytometry, Namalwa cells, FITC-GAH; none 2.52
human CD20 on cells [29] = biological target: T3, human CD20 on cells; experiment: indirect flow cytometry, FITC-GAH Fc, Daudi cells; none 3.2
human CD20 on cells [30] = biological target: T3, human CD20 on cells; experiment: indirect flow cytometry, FITC-GAH Fc, Ramos cells; none 3.1
human CD20 on cells [31] = biological target: T3, human CD20 on cells; experiment: indirect flow cytometry, FITC-GAH Fc, Namalwa cells; none 2.6
human CD20 on cells [32] = biological target: T3, human CD20 on cells; experiment: indirect flow cytometry, FITC-GAH Fc, SU-DHL-6 cells; none 4.6
human CD20 on cells [33] = biological target: T3, human CD20 on cells; experiment: indirect flow cytometry, FITC-GAH Fc, WSU-FSCCL cells; none 2.7

B1: milatuzumab (hLL1, humanized anti-CD74 mAb) (antibody, V domains shown)
VH: QVQLQQSGSELKKPGASVKVSCKASGYTFTNYGVNWIKQAPGQGLQWMGWINPNTGEPTFDDDFKGRFAFSLDTSVSTAYLQISSLKADDTAVYFCSRSRGKNEAWFAYWGQGTLVTVSS
VL: DIQLTQSPLSLPVTLGQPASISCRSSQSLVHRNGNTYLHWFQQRPGQSPRLLIYTVSNRFSGVPDRFSGSGSGTDFTLKISRVEAEDVGVYFCSQSSHVPPTFGAGTRLEIK
Geometric Mean Fluorescence (human CD74 on cells [1]): 95.1 | Geometric Mean Fluorescence (human CD74 on cells [2]): 48.8 | Geometric Mean Fluorescence (human CD74 on cells [3]): 23.2 | Geometric Mean Fluorescence (human CD74 on cells [4]): 7.81 | Geometric Mean Fluorescence (human CD74 on cells [5]): 17.3 | Geometric Mean Fluorescence (human CD74 on cells [6]): 8.66 | Geometric Mean Fluorescence (human CD74 on cells [7]): 7.9 | Geometric Mean Fluorescence (human CD74 on cells [8]): 95.1 | GEO MEAN Fluorescence (human CD74 on cells [9]): 10.1 | Geometric Mean Fluorescence (human CD74 on cells [10]): 48.8 | Geometric Mean Fluorescence (human CD74 on cells [11]): 23.3 | Geometric Mean Fluorescence (human CD74 on cells [12]): 7.8 | Geometric Mean Fluorescence (human CD74 on cells [13]): 17.3 | Geometric Mean Fluorescence (human CD74 on cells [14]): 8.7

B2: epratuzumab (hLL2, humanized anti-CD22 mAb) (antibody, V domains shown)
VH: QVQLVQSGAEVKKPGSSVKVSCKASGYTFTSYWLHWVRQAPGQGLEWIGYINPRNDYTEYNQNFKDKATITADESTNTAYMELSSLRSEDTAFYFCARRDITTFYWGQGTTVTVSS
VL: DIQLTQSPSSLSASVGDRVTMSCKSSQSVLYSANHKNYLAWYQQKPGKAPKLLIYWASTRESGVPSRFSGSGSGTDFTFTISSLQPEDIATYYCHQYLSSWTFGGGTKLEIK
Geometric Mean Fluorescence (human CD22 on cells [15]): 6.4 | Geometric Mean Fluorescence (human CD22 on cells [16]): 11 | Geometric Mean Fluorescence (human CD22 on cells [17]): 4.1 | GEO MEAN Fluorescence (human CD22 on cells [18]): 6.76 | Geometric Mean Fluorescence (human CD22 on cells [19]): 11

B3: veltuzumab (hA20, humanized anti-CD20 mAb) (antibody, V domains shown)
VH: QVQLQQSGAEVKKPGSSVKVSCKASGYTFTSYNMHWVKQAPGQGLEWIGAIYPGMGDTSYNQKFKGKATLTADESTNTAYMELSSLRSEDTAFYYCARSTYYGGDWYFDVWGQGTTVTVSS
VL: DIQLTQSPSSLSASVGDRVTMTCRASSSVSYIHWFQQKPGKAPKPWIYATSNLASGVPVRFSGSGSGTDYTFTISSLQPEDIATYYCQQWTSNPPTFGGGTKLEIK
Geometric Mean Fluorescence (human CD20 on cells [20]): 267 | Geometric Mean Fluorescence (human CD20 on cells [21]): 241 | Geometric Mean Fluorescence (human CD20 on cells [22]): 204 | Geometric Mean Fluorescence (human CD20 on cells [23]): 10.1 | Geometric Mean Fluorescence (human CD20 on cells [24]): 1200 | Geometric Mean Fluorescence (human CD20 on cells [25]): 8.91 | Geometric Mean Fluorescence (human CD20 on cells [26]): 128 | Geometric Mean Fluorescence (human CD20 on cells [27]): 267 | GEO MEAN Fluorescence (human CD20 on cells [28]): 6.28 | Geometric Mean Fluorescence (human CD20 on cells [29]): 241 | Geometric Mean Fluorescence (human CD20 on cells [30]): 204 | Geometric Mean Fluorescence (human CD20 on cells [31]): 10.1 | Geometric Mean Fluorescence (human CD20 on cells [32]): 1200 | Geometric Mean Fluorescence (human CD20 on cells [33]): 8.9
